Reference: US20260151494A1 (ARO BIOTHERAPEUTICS, published 2026)

How the values were obtained:
[1] = target: T1, human CD71 extracellular domain (CD71-ECD) (human, UniProt P02786 89-760); assay: primary ELISA
T1 construct: also called hCD71; human CD71-ECD

[2] = target: T1, human CD71 extracellular domain …; assay: primary ELISA, RLU ratio to HSA
[3] = target: human CD71 on cells (SKBR3; SW620-rLuc-KRAS) (human, UniProt P02786 1-760); assay: cell-based or functional assay
[4] = target: T2, apical domain of human CD71 (human, UniProt P02786 189-383, limits assumed); assay: primary ELISA; signal on apical domain over signal on HSA
T2 construct: domain: apical domain; the panning antigen was 30% biotinylated; also called human apical domain of CD71
T2 sequence (P02786 189-383 limits assumed): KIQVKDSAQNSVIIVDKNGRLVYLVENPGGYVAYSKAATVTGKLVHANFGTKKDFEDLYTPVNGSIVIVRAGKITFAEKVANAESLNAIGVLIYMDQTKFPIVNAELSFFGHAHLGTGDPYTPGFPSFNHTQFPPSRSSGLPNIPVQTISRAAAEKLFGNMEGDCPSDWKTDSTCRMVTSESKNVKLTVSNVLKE

[5] = target: T2, apical domain of human CD71; assay: primary ELISA of colonies, luminescence
[6] = target: T3, human CD71 extracellular domain (human, UniProt P02786 89-760); assay: primary ELISA of colonies, luminescence
T3 construct: also called hCD71; human CD71-ECD
T3 sequence (P02786 89-760): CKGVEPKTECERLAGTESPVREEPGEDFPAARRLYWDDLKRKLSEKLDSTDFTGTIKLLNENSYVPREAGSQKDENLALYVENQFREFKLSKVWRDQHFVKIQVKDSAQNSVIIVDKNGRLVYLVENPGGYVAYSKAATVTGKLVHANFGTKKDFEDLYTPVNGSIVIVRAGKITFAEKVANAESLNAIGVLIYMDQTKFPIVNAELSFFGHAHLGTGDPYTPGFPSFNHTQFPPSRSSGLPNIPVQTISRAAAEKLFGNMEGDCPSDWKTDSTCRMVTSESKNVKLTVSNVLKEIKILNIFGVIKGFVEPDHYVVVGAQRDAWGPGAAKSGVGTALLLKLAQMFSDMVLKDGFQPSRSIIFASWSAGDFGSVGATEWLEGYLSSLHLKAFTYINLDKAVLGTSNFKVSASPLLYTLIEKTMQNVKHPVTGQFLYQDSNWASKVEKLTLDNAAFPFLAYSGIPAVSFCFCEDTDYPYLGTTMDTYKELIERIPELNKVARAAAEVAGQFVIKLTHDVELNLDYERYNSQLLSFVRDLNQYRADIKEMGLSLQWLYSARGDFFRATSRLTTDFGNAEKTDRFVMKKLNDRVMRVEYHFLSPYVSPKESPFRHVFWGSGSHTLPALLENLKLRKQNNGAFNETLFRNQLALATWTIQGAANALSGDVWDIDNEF

[7] = target: T3, human CD71 extracellular domain; assay: primary ELISA; signal on hCD71 over signal on HSA

T1 sequence (P02786 89-760): as above
Chain of human CD71 on cells (SKBR3; SW620-rLuc-KRAS) (P02786 whole entry, the tested form may be a part): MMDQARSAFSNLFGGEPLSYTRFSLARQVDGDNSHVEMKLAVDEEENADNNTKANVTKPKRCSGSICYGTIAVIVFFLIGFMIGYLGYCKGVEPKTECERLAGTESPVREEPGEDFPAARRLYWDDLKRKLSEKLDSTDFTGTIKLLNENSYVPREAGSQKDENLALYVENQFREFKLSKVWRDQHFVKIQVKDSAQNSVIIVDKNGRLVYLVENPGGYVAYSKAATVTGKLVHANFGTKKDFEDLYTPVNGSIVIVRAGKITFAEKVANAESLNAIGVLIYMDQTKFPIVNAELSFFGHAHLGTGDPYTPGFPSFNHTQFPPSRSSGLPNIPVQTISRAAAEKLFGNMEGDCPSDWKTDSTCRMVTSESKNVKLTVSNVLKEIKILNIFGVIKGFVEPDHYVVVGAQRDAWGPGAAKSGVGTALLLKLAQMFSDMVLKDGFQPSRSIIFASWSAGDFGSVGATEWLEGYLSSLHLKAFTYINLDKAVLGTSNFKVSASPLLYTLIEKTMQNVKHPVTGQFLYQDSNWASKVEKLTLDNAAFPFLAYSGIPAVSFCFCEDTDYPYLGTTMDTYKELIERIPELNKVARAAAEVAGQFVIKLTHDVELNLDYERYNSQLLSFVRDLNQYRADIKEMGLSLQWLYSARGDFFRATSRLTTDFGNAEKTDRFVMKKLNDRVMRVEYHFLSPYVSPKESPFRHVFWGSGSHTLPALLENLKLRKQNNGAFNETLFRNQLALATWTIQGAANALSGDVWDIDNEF

B1: CD71-binding FN3 domain SEQ ID NO: 253 (designed binder)
chain: MSLPAPKNLVVSRVTEDSARLSWTAPDAAFDSFDINYWENESGGEAIALFVPGSERSYDLTGLKPGTEYWVSIGGVKGGRFSEPLYARFTT
B1 was tested. Which RLU [1] did it give?
Its RLU is 3.53e+06 RLU.

And the “hCD71:HSA” value [2]?
The value was 324.

B2: CD71-binding FN3 domain of SEQ ID NO: 370 (designed binder)
chain: MLPAPKNLVVSRVTEDSARLSWTAPDAAFDSFYIAYAEPRPDGEAIVLVVPGSERSYDLTGLKPGTEYSVLIHGVKGGLLSSPLSAHFTT
How did the “CTG EC50 (CellTiter-Glo luminescent assay, SKBR3 cells, 72 h)” value (from here on “CTG EC50”) [3] turn out when B2 was run?
Its value is 10.9 nM.

B3: CD71-binding FN3 domain SEQ ID NO: 279 (designed binder)
chain: MSLPAPKNLVVSRVTEDSARLSWTAPDAAFDSFFIGYLEPQPPGEAIHLYVPGSERSYDLTGLKPGTEYNVTIQGVKGGNWSAPLSAIFTT
For B3, which RLU [1] is on record?
Its RLU is 3.66e+06 RLU.

And the “hCD71:HSA” value [2]?
The value was 449.

B4: CD71-binding FN3 domain SEQ ID NO: 295 (designed binder)
chain: MSLPAPKNLVVSRVTEDSARLSWTAPDAAFDSFFIGYLEPQPPGEAIDLYVPGSERSYDLTGLKPGTEYNVTIQGVKGGFPSEPLVATFTT
What does the source list for B4?
RLU [1]: 6.2e+06 RLU; hCD71:HSA [2]: 438

B5: CD71-binding FN3 domain SEQ ID NO: 281 (designed binder)
chain: MSLPAPKNLVVSRVTEDSARLSWTAPDAAFDSFFIGYLEPQPPGEAIALYVPGSERSYDLTGLKPGTEYNVTIQGVKGGFPSEPLIANFTT
Which results are given for B5?
RLU [1]: 6.37e+06 RLU; hCD71:HSA [2]: 380

B6: CD71-binding FN3 domain SEQ ID NO: 333 (designed binder)
chain: MSLPAPENLVVSRVTEDSARLSWTAPDAAFDSFFIGYLEPQPPGEAIALYVPGSERSYDLTGLKPGTEYNVTIQGVKGGFPSLPLVATFTT
What does the source list for B6?
RLU [1]: 5.32e+06 RLU; hCD71:HSA [2]: 146

B7: CD71-binding FN3 domain SEQ ID NO: 294 (designed binder)
chain: MSLPAPKNLVVSRVTEDSARLSWTAPDAAFDSFFIGYLEPQPLGEAIHLFVPGSERSYDLTGLKPGTEYNVTIQGVKGGFPSEPLIASFTT
How did the RLU [1] turn out when B7 was run?
Its RLU is 6.48e+06 RLU.

And the “hCD71:HSA” value [2]?
Its value is 215.

B8: CD71-binding FN3 domain SEQ ID NO: 331 (designed binder)
chain: MSLPAPKNLVVSRVTEDSARLSWTAPDAAFDSFFIGYLEPQPPGEAIHLYVPGSERSYDLTGLKPGTEYNVTIQGVKVGFPSEPLIANFTT
Which RLU [1] does the source give for B8 here?
Its RLU is 4.66e+06 RLU.

What about the “hCD71:HSA” value [2] of the same binder?
The value was 524.

B9: CD71-binding FN3 domain SEQ ID NO: 293 (designed binder)
chain: MSLPAPKNLVVSRVTEDSARLSWTAPDAAFDSFFIGYLEPQPPGEAIDLYVPGSERSYDLTGLKPGTEYNVTIQGVKGGFPSHPLVATFTT
Which results are given for B9?
RLU [1]: 6.23e+06 RLU; hCD71:HSA [2]: 561

B10: CD71-binding FN3 domain SEQ ID NO: 259 (designed binder)
chain: MSLPAPKNLVVSRVTEDSARLSWTAPDAAFDSFYIAYAEPRPDGEAILLEVPGSERSYDLTGLKPGTEYSVLIHGVKGGLLSSPLSATFTT
Which results are given for B10?
RLU [1]: 3.77e+06 RLU; hCD71:HSA [2]: 300

B11: CD71-binding FN3 domain SEQ ID NO: 261 (designed binder)
chain: MSLPAPKNLVVSRVTEDSARLSWTAPDAAFDSFYIAYAEPRPDGEAILLWVPGSERSYDLTGLKPGTEYSVLIHGVKGGLLSSPLHAYFTT
B11 was tested. Which RLU [1] did it give?
The RLU was 3.43e+06 RLU.

And the “hCD71:HSA” value [2]?
The value was 535.

B12: CD71-binding FN3 domain SEQ ID NO: 240 (designed binder)
chain: MSLPAPKNLVVSRVTEDSARLSWTAPDAAFDSFHIWYFEKANEGEAIPLVVPGSERSYDLTGLKPGTEYDVDIGGVKGGAWSIPLGARFTT
For B12, which RLU [1] is on record?
The RLU was 3.72e+06 RLU.

And the “hCD71:HSA” value [2]?
Its value is 39.

B13: CD71-binding FN3 domain SEQ ID NO: 241 (designed binder)
chain: MSLPAPKNLVVSRVTEDSARLSWTAPDAAFDSFMIAYDEFIVWGEAVVLTVPGSERSYDLTGLKPGTEYLVEILGVKGGTISGPLSAIFTT
For B13, which RLU [1] is on record?
Its RLU is 3.4e+06 RLU.

What about the “hCD71:HSA” value [2] of the same binder?
Its value is 178.

B14: CD71-binding FN3 domain SEQ ID NO: 273 (designed binder)
chain: MLPAPKNLVVSRVTEDSARLSWTAPDAAFDSFEISYWEHTFNGEAIILFVPGSERSYDLTGLKPGTEYYVTIGGVKGGAWSPPLWAEFTT
What does the source list for B14?
RLU [1]: 3.78e+06 RLU; hCD71:HSA [2]: 664

B15: CD71-binding FN3 domain of SEQ ID NO: 347 (designed binder)
chain: MLPAPKNLVVSRVTEDSARLSWTAPDAAFDSFFIGYLEPQPPGEAIGLFVPGSERSYDLTGLKPGTEYNVTIQGVKGGFPSEPLKAAFTT
Which “CTG EC50” value [3] does the source give for B15 here?
The value was 53.4 nM.

B16: CD71-binding FN3 domain of SEQ ID NO: 491 (designed binder)
chain: MLPAPKNLVVSRVTEDSARLSWTAPDAAFDSFFIGYLEPQPSGEAIHLIVPGSERSYDLTGLKPGTEYNVTIQGVKGGFPSDPLVASFTT
Which “CTG EC50” value [3] does the source give for B16 here?
The value was 3.2 nM.

B17: CD71-binding FN3 domain of SEQ ID NO: 112 (designed binder)
chain: MLPAPKNLVVSRVTEDSARLSWTAPDAAFDSFFIGYLEPQPPGEAIDLWVPGSERSYDLTGLKPGTEYNVTIQGVKGGFPSMPLSAIFTT
notes: Screen 1 hit, tested from colonies in the primary ELISA; not shown: C-terminal poly-histidine tag added to each FN3 domain
With B17 as the binder, how does the “Apical domain:HSA” value [4] read?
Its value is 1800 ratio.

What about the “Apical domain, RLU” value [5] of the same binder?
Its value is 4.78e+06 RLU.

What about the “hCD71, RLU” value [6] of the same binder?
The value was 5.41e+06 RLU.

And the “hCD71:HSA” value [7]?
The value was 2040 ratio.

B18: CD71-binding FN3 domain of SEQ ID NO: 445 (designed binder)
chain: MLPAPKNLVVSRVTEDSARLSWTAPDAAFDSFFIGYLEPQPPGEAIHLFVPGSERSYDLTGLKPGTEYNVTIQGVKGGFPSDPLVASFTT
Which “CTG EC50” value [3] does the source give for B18 here?
Its value is 0.4 nM.

B19: CD71-binding FN3 domain of SEQ ID NO: 527 (designed binder)
chain: MLPAPKNLVVSRVTEDSARLSWTAPDAAFDSFFIGYLEPQPPGEAIHLYVPGSERSYDLTGLKPGTEYNVTIQGVKGGFPSEPLIANFTT
For B19, which “CTG EC50” value [3] is on record?
Its value is 0.1 nM.

B20: CD71-binding FN3 domain of SEQ ID NO: 469 (designed binder)
chain: MLPAPKNLVVSRVTEDSARLSWTAPDAAFDSFFIGYLEPQPPGEAIHLYVPGSERSYDLTGLKPGTEYNVTIQGVKGGFPSLPLVATFTT
How did the “CTG EC50” value [3] turn out when B20 was run?
Its value is 0.2 nM.

B21: CD71-binding FN3 domain of SEQ ID NO: 497 (designed binder)
chain: MLPAPKNLVVSRVTEDSARLSWTAPDAAFDSFFIGYLEPQPPGEAITLLVPGSERSYDLTGLKPGTEYNVTIQGVKGGFPSKPLYAYFTT
B21 was tested. Which “CTG EC50” value [3] did it give?
The value was 31.3 nM.

B22: CD71-binding FN3 domain of SEQ ID NO: 479 (designed binder)
chain: MLPAPKNLVVSRVTEDSARLSWTAPDAAFDSFFIGYLEPQPPGEAINLWVPGSERSYDLTGLKPGTEYNVTIQGVKGGFPSTPLFAGFTT
Which “CTG EC50” value [3] does the source give for B22 here?
The value was 30.6 nM.

B23: CD71-binding FN3 domain of SEQ ID NO: 109 (designed binder)
chain: MLPAPKNLVVSRVTEDSARLSWTAPDAAFDSFFIGYLEPQPPGEAIILHVPGSERSYDLTGLKPGTEYNVTIQGVKGGFPSLPLNANFTT
notes: as for B17
With B23 as the binder, how does the “Apical domain:HSA” value [4] read?
The value was 1030 ratio.

What about the “Apical domain, RLU” value [5] of the same binder?
Its value is 3.35e+06 RLU.

And the “hCD71, RLU” value [6]?
The value was 3.94e+06 RLU.

What about the “hCD71:HSA” value [7] of the same binder?
Its value is 1210 ratio.

B24: CD71-binding FN3 domain of SEQ ID NO: 107 (designed binder)
chain: MLPAPKNLVVSRVTEDSARLSWTAPDAAFDSFFIGYLEPQPPGEAIGLQVPGSERSYDLTGLKPGTEYNVTIQGVKGGFPSMPLSAIFTT
notes: as for B17
How did the “Apical domain:HSA” value [4] turn out when B24 was run?
The value was 1300 ratio.

And the “Apical domain, RLU” value [5]?
Its value is 4.23e+06 RLU.

What about the “hCD71, RLU” value [6] of the same binder?
The value was 6.03e+06 RLU.

What about the “hCD71:HSA” value [7] of the same binder?
Its value is 1860 ratio.

B25: CD71-binding FN3 domain of SEQ ID NO: 410 (designed binder)
chain: MLPAPKNLVVSRVTEDSARLSWTAPDAAFDSFFIGYLEPQPPGEAIALWVPGSERSYDLTGLKPGTEYNVTIQGVKGGFPSQPLHAHFTT
B25 was tested. Which “CTG EC50” value [3] did it give?
The value was 5.8 nM.

B26: CD71-binding FN3 domain of SEQ ID NO: 111 (designed binder)
chain: MLPAPKNLVVSRVTEDSARLSWTAPDAAFDSFFIGYLEPQPPGEAISLWVPGSERSYDLTGLKPGTEYNVTIQGVKGGFPSIPLWAIFTT
notes: as for B17
B26 was tested. Which “Apical domain:HSA” value [4] did it give?
The value was 1940 ratio.

And the “Apical domain, RLU” value [5]?
The value was 5.04e+06 RLU.

What about the “hCD71, RLU” value [6] of the same binder?
The value was 3.7e+06 RLU.

And the “hCD71:HSA” value [7]?
Its value is 1420 ratio.

B27: CD71-binding FN3 domain of SEQ ID NO: 104 (designed binder)
chain: MLPAPKNLVVSRVTEDSARLSWTAPDAAFDSFFIGYLEPQPPGEAIHLIVPGSERSYDLTGQKPGTEYNVTIQGVKGGFPSDPLVASFTT
notes: as for B17
What does the source list for B27?
Apical domain:HSA [4]: 150 ratio; Apical domain, RLU [5]: 4.43e+06 RLU; hCD71, RLU [6]: 6.36e+06 RLU; hCD71:HSA [7]: 216 ratio

B28: CD71-binding FN3 domain SEQ ID NO: 332 (designed binder)
chain: MSLPAPKNLVVSRVTEDSARLSWTAPDAAFDSFEIGYWEGPGGGEAIILVVPGSERSYDLTGLKPGTEYYVQIGGVKGGDWSTPLWATFTT
What does the source list for B28?
RLU [1]: 1.7e+06 RLU; hCD71:HSA [2]: 131

B29: CD71-binding FN3 domain SEQ ID NO: 245 (designed binder)
chain: MSLPAPKNLVVSRVTEDSARLSWTAPDAAFDSFEISYWEHTFNGEAIILFVPGSERSYDLTGLKPGTEYYVTIGGVKGGAWSPPLWAHFTT
How did the RLU [1] turn out when B29 was run?
The RLU was 3.75e+06 RLU.

And the “hCD71:HSA” value [2]?
The value was 377.

B30: CD71-binding FN3 domain SEQ ID NO: 267 (designed binder)
chain: MSLPAPKNLVVSRVTEDSARLSWTAPDAAFDSFEISYWEHTFNGEAIILFVPGSERSYDLTGLKPGTEYYVTIGGVKGGAWSPPLWAEFTT
Which RLU [1] does the source give for B30 here?
Its RLU is 3.12e+06 RLU.

And the “hCD71:HSA” value [2]?
Its value is 92.
